Data set [1] concerns the molecule itself. The experiment in a line: crystal structure; ChALDH apoenzyme, hanging drop at 4 °C, 20% PEG-100, 100 mM sodium/potassium phosphate pH 6.2, 200 mM NaCl; 3.18 Å.
Data set [2] deals with the molecule itself. Kind of data set: crystal structure; ChMDH with 5 mM NADP+, hanging drop at 4 °C, 25% PEG-1500, sodium propionate/sodium cacodylate/BIS-TRIS propane pH 7.0; 2.04 Å.

The text below walks through data of paper PMC9489553, “Biochemical and clinical studies of putative allergens to assess what distinguishes them from other non-allergenic proteins in the same family” (Transgenic Research, 2022).

What is called stoichiometry N is a count of units in the complex or per binding partner.

B1: Cladosporium herbarum (aka Davidiella tassiana) aldehyde dehydrogenase (enzyme)
chain: MTSVQLETPHSGKYEQPTGLFINNEFVKGQEGKTFDVINPSDESVITQVHEATEKDVDIAVAAARKAFEGSWRQETPENRGKLLNNLANLFEKNIDLLAAVESLDNGKAISMAKGDISMCVGCLRYYGGWADKITGKVIDTTPDTFNYVKKEPIGVCGQIIPWNFPLLMWAWKIGPAIACGNTVVLKTAEQTPLGGLVAASLVKEAGFPPGVINVISGFGKVAGAALSSHMDVDKVAFTGSTVVGRTILKAAASSNLKKVTLELGGKSPNIVFEDADIDNAISWVNFGIFFNHGQCCCAGSRVYVQESIYDKFVQKFKERAQKNVVGDPFAADTFQGPQVSKVQFDRIMEYIQAGKDAGATVETGGKRKGDKGYFIEPTIFSNVTEDMKIVKEEIFGPVCSIAKFKTKEDAIKLGNASTYGLAAAVHTKNLNTAIEVSNALKAGTVWVNTYNTLHHQMPFGGYKESGIGRELGEDALANYTQTKTVSIRLGDALFG
notes: aldehyde dehydrogenase of Cladosporium herbarum (aka Davidiella tassiana), GenBank CAA55072.2; codon-optimised synthetic gene in pET-28a; Apoenzyme in the crystal; also called ChALDH; C. herbarum ALDH; source: E. coli BL21 (DE3), purified (Ni-NTA, size-exclusion chromatography); not shown: His-tag, N-terminal, cleaved
Turning to B1, in data set [1], the “stoichiometry N” value is 4.

B2: Cladosporium herbarum mannitol dehydrogenase (enzyme)
chain: MPGQQATKHESLLDQLSLKGKVVVVTGASGPKGMGIEAARGCAEMGAAVAITYASRAQGAEENVKELEKTYGIKAKAYKCQVDSYESCEKLVKDVVADFGQIDAFIANAGATADSGILDGSVEAWNHVVQVDLNGTFHCAKAVGHHFKERGTGSLVITASMSGHIANFPQEQTSYNVAKAGCIHMARSLANEWRDFARVNSISPGYIDTGLSDFVPKETQQLWHSMIPMGRDGLAKELKGAYVYFASDASTYTTGADLLIDGGYTTR
notes: codon-optimised synthetic gene in pET-28a; Crystallised in complex with NADP+; also called ChMDH; C. herbarum MDH; source: E. coli BL21 (DE3), purified (Ni-NTA, size-exclusion chromatography); not shown: His-tag, N-terminal, cleaved
With B2, the “stoichiometry N” value in data set [2] was determined as 4.
